Substitutions are numbered along the chain they refer to.
Columns and labels:
[1] = molecular target: T1, human transferrin receptor (hTfR) fused to EGFP, on CHO cells (human, UniProt P02786 1-760); experiment: flow cytometry on CHO-hTfR-EGFP cells, 1 hr at 4 C, anti-6His + Alexa647 anti-mouse; ratio to background fluorescence
T1 construct: whole, on cells; also called human TfR; CHO-hTfR-EGFP; not shown: EGFP from pEGFP-C1 vector, fused to the N-terminal (intracellular) end of hTfR
Method: FIGS. 15A-15H: In vitro gene silencing activity of VHH-siGFPst1 bioconjugates. […] CHO-hTfR-EGFP cells were incubated 1 hr at 4° C. with various concentrations of the indicated compounds. Detection of VHHs was performed using a primary mouse anti-6His (1/1000) and an Alexa647-conjugated anti-mouse secondary antibody (1/400). Measurements of cell-surface signal associated to VHH were performed using flow cytometry. The results are expressed as the ratio of Alexa647-associated fluorescence intensity of test compounds to that of background fluorescence. […] The total fluorescence associated to the EGFP protein was then quantified using flow cytometry and rationalized to that of untreated (control) cells (set at 100%) *** p≤0.001. […] The total fluorescence associated with the EGFP protein was then quantified using flow cytometry and rationalized to that of untreated (control) cells (set at 100%). […] CHO-hTfR-EGFP cells were incubated with the indicated compounds at 1 μM during 120 hrs at 37° C. Data were processed and analyzed as described in (B). *** p≤0.001 vs. untreated cells. […] The total fluorescence associated with the EGFP protein was then quantified using flow cytometry and rationalized to that of untreated (control) cells (set at 100%).

[2] = molecular target: T1, human transferrin receptor (hTfR) fused …; experiment: cell-based or functional assay
[3] = molecular target: T1, human transferrin receptor (hTfR) fused …; experiment: flow cytometry on CHO-hTfR-EGFP cells, 1 hr at 4 C, anti-6His + Alexa647 anti-mouse; apparent Kd, mean ± SEM of 3 experiments
Method: (§1) (A) CHO-hTfR-EGFP and CHO-mTfR-EGFP cells were incubated 1 hr at 4° C. with various concentrations of VHHs, detected with a mouse anti-6His (1/1000) and an Alexa647-conjugated anti-mouse secondary antibody (1/400). Measurements were performed using flow cytometry.
(§2) All experiments were performed in 96 well plates using 2×10⁵ cells/well, at 4° C. with shaking. CHO cell lines stably expressing the hTfR or the mTfR fused to EGFP or CHO WT cells were saturated with PBS/BSA 2% solution during 30 min to avoid non-specific binding, followed by incubation with purified VHHs at concentrations ranging from 50 μM to 5 μM for 1 hr. After one wash in PBS/BSA 2%, cells were incubated for 1 hr with an anti-6His tag antibody (mouse), washed twice with PBS/BSA 2%, and incubated for 45 min with an Alexa647-conjugated anti-mouse secondary antibody. After two last washes in PBS/BSA 2%, cells were fixed by incubation for 15 min with PBS/PFA 2%, washed once with PBS and finally resuspended in PBS and stored at 4° C. Fluorescence levels were assessed using an Attune NxT Flow Cytometer (Thermo Fisher Scientific). […] No labeling of the CHO WT control cells was detected with all the tested VHHs (not shown). The VHH K_{d app} were calculated using GraphPad Prism software (FIG. 11-B; 12-B).

[4] = molecular target: T2, mouse transferrin receptor (mTfR) fused to EGFP, on CHO cells (mouse, UniProt Q62351 1-763); experiment: flow cytometry on CHO-mTfR-EGFP cells, 1 hr at 4 C, anti-6His + Alexa647 anti-mouse; apparent Kd, mean ± SEM of 3 experiments
T2 construct: whole, on cells; also called mouse TfR; CHO-mTfR-EGFP; not shown: EGFP
T2 sequence (Q62351 whole entry, the tested form may be a part): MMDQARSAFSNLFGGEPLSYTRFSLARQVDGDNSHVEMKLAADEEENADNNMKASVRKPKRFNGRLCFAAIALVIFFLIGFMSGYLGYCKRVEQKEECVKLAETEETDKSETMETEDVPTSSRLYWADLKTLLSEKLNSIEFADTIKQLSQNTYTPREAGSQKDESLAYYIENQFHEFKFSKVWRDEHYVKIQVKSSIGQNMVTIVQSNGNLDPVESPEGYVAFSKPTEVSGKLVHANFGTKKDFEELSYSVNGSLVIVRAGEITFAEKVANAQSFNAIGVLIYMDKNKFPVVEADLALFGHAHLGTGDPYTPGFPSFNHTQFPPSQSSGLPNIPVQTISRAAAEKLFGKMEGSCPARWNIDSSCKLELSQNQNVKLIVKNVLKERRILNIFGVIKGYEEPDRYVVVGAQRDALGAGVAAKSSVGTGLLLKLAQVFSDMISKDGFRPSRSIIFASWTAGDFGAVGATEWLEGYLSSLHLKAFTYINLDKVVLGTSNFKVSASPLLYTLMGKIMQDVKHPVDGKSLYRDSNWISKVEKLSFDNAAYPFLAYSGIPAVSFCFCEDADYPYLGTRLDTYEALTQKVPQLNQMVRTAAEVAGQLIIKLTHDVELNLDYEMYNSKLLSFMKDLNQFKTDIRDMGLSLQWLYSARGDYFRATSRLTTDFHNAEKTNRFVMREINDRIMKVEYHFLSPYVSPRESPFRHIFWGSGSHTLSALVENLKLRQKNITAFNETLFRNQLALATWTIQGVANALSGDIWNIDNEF
Method: as §1, §2

[5] = molecular target: T3, human TfR ectodomain fused to a mouse IgG1 Fc fragment (human, UniProt P02786 89-760); experiment: SPR, kinetic
T3 construct: extracellular domain; ectodomain fused to the N-terminal end of the Fc, made in-house; not shown: mouse IgG1 Fc fragment
T3 sequence (P02786 89-760): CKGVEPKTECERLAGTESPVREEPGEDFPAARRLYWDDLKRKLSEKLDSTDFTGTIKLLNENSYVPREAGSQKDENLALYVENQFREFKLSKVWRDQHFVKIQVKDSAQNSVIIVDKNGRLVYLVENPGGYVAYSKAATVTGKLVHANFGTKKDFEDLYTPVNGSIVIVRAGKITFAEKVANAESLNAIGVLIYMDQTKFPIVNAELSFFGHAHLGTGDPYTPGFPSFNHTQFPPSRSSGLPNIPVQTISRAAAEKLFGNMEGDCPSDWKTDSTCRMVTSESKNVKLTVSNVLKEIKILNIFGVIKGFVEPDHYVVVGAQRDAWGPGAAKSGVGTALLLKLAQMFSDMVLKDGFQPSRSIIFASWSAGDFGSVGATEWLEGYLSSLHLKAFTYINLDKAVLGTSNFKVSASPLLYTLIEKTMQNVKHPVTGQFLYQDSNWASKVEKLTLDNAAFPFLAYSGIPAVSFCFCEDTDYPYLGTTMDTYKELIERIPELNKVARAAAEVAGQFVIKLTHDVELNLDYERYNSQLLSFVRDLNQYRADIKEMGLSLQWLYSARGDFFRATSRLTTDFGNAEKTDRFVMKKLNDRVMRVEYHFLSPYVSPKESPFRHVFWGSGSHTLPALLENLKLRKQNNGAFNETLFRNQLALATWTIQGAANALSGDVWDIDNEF
In short: (§3)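 TfR–mouse Fc fusions, produced in-house, captured on HC 1500M or CM5 chips either directly or via immobilized anti-mouse IgG. VHHs injected in single-cycle or multiple-cycle kinetic mode on Biacore T200.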

[6] = molecular target: T3, human TfR ectodomain fused to a mouse …; experiment: SPR, at equilibrium
In short: as §3

[7] = molecular target: T1, human transferrin receptor (hTfR) fused …; experiment: apparent Kd, flow cytometry, CHO cells
Method: as §2

[8] = molecular target: T1, human transferrin receptor (hTfR) fused …; experiment: flow cytometry on CHO-hTfR-EGFP cells, 1 hr at 4 C, anti-6His + Alexa647 anti-mouse; apparent Kd, mean ± SEM of 3 experiments; remark: listed apart in the source
Method: (§4) (A) CHO-hTfR-EGFP and CHO-mTfR-EGFP cells were incubated 1 hr at 4° C. with various concentrations of VHHs, detected with a mouse anti-6His (1/1000) and an Alexa647-conjugated anti-mouse secondary antibody (1/400). Measurements were performed using flow cytometry. The ratio of fluorescence intensity for each point was normalized with the corresponding EGFP signal (receptor expression) and gave rise to the arbitrary unit. Data are presented as mean±SEM of 3 independent experiments. (B) Characteristics of VHHs: Molecular Weight (Da); Theoretical pI; Apparent Kd on human TfR (nM); Apparent Kd on mouse TfR (nM). Data are presented as mean±SEM of 3 independent experiments. NB: no binding, LB: low binding.
All experiments were performed in 96 well plates using 2×10⁵ cells/well, at 4° C. with shaking. CHO cell lines stably expressing the hTfR or the mTfR fused to EGFP or CHO WT cells were saturated with PBS/BSA 2% solution during 30 min to avoid non-specific binding, followed by incubation with purified VHHs at concentrations ranging from 50 μM to 5 μM for 1 hr. After one wash in PBS/BSA 2%, cells were incubated for 1 hr with an anti-6His tag antibody (mouse), washed twice with PBS/BSA 2%, and incubated for 45 min with an Alexa647-conjugated anti-mouse secondary antibody. […] Fluorescence levels were assessed using an Attune NxT Flow Cytometer (Thermo Fisher Scientific).

[9] = molecular target: T2, mouse transferrin receptor (mTfR) fused …; experiment: apparent Kd, flow cytometry, CHO cells
Method: as §2

[10] = molecular target: T2, mouse transferrin receptor (mTfR) fused …; experiment: flow cytometry on CHO-mTfR-EGFP cells, 1 hr at 4 C, Alexa647 anti-mouse; apparent Kd, mean ± SEM of 3 experiments
Method: as §4, with “FIGS. 13A-13B: Apparent Kd determination of 13C3-HC-VHH fusions on hTfR- and mTfR-expressing CHO cell lines. (A)” for “(A)”, “13C3 fusions and” for “VHHs,”, “with” for “with a mouse anti-6His (1/1000) and”, “anti-mouse” for “anti-mouse secondary”, “13C3 fusions:” for “VHHs:”, “(Da);” for “(Da); Theoretical pI;”
All experiments were performed in 96 well plates using 2×10⁵ cells/well, at 4° C. with shaking. CHO cell lines stably expressing the hTfR or the mTfR fused to EGFP or CHO WT cells were saturated with PBS/BSA 2% solution during 30 min to avoid non-specific binding, followed by incubation with purified VHHs at concentrations ranging from 50 μM to 5 μM for 1 hr. After one wash in PBS/BSA 2%, cells were incubated for 1 hr with an anti-6His tag antibody (mouse), washed twice with PBS/BSA 2%, and incubated for 45 min with an Alexa647-conjugated anti-mouse secondary antibody. After two last washes in PBS/BSA 2%, cells were fixed by incubation for 15 min with PBS/PFA 2%, washed once with PBS and finally resuspended in PBS and stored at 4° C. Fluorescence levels were assessed using an Attune NxT Flow Cytometer (Thermo Fisher Scientific).

T1 sequence (P02786 whole entry, the tested form may be a part): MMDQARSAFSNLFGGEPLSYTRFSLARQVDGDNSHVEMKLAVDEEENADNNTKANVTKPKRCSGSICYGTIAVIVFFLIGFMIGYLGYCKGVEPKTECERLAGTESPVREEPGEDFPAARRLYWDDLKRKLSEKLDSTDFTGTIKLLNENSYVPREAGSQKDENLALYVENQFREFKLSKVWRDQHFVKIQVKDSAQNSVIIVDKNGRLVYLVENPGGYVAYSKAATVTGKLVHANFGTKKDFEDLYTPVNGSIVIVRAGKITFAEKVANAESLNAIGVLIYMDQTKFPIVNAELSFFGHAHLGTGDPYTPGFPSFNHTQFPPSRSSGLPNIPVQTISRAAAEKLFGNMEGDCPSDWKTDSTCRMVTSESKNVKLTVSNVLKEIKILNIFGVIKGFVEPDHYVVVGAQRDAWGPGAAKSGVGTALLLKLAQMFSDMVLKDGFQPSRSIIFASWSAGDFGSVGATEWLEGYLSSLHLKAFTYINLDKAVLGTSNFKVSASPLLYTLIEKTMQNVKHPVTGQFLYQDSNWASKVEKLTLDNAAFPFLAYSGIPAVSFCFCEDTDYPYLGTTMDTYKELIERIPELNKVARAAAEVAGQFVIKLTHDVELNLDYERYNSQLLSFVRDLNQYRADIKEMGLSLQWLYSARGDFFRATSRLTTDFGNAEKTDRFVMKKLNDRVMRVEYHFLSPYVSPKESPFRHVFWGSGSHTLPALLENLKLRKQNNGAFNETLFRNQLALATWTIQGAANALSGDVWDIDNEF

B1: VHH A-siGFPst1 bioconjugate (VHH)
VHH: EVQLVESGGGVVQPGGSLKLSCVASGTDFSINFIRWYRQAPGKQREFVAGFTATGNTNYADSMKGRFTISRDNTKNAVYLQIDSLKPEDTAVYYCYMLDKWGQGTQVTVSS
modifications: siGFPst1 siRNA linked by azide/DBCO click chemistry to the Gln of the C-terminal Q-tag
notes: not shown: C-terminal tag with His tag and Q-tag (Q-tagged VHH)
[1]
  EC50 (read off the curve): ~3 nM
[2]
  IC50 of reduction of GFP protein levels, 6-hour pulse and chase to 120 hrs: 1.24 nM
  IC50 of reduction of GFP protein levels, free uptake 120 hrs: 2.73 nM

B2: VHH A19 (C5^V19) (VHH)
VHH: B1 VHH with D99E
[3]
  Kd: 9.2 nM
[4]
  Kd: 210 nM
[5]
  Kd: 22.3 nM
  koff: 0.0097 s⁻¹
  kon: 426000 M⁻¹ s⁻¹
[6]
  Kd: 7.13 nM

B3: VHH A17 (C5^V17) (VHH)
VHH: B1 VHH with L98I
[3]
  Kd: 5.3 nM
[4]
  Kd: 208 nM
[7]
  Kd: 3 to 4 nM

B4: VHH A5 (C5^V5) (VHH)
VHH: B1 VHH with Y96A
[5]
  Kd: 154 nM
  koff: 0.0509 s⁻¹
  kon: 332000 M⁻¹ s⁻¹
[8]
  Kd: 25 nM
[6]
  Kd: 180 nM
[9]
  Kd: 604 nM

B5: 13C3-LC-VHH A (antibody)
light: DVVMTQTPLSLPVSLGDQASISCRSGQSLVHSNGNTYLHWYLQKPGQSPKLLIYTVSNRFSGVPDRFSGSGSGSDFTLKISRVEAEDLGVYFCSQNTFVPWTFGGGTKLEIKRADAAPTVSIFPPSSEQLTSGGASVVCFLNNFYPKDINVKWKIDGSERQNGVLNSWTDQDSKDSTYSMSSTLTLTKDEYERHNSYTCEATHKTSTSPIVKSFNRNECSGSGGGGGMAEVQLVESGGGVVQPGGSLKLSCVASGTDFSINFIRWYRQAPGKQREFVAGFTATGNTNYADSMKGRFTISRDNTKNAVYLQIDSLKPEDTAVYYCYMLDKWGQGTQVTVSSAAA
heavy: QVQLQQSGPELVRPGVSVKISCKGSGYTFTDYAMHWVKQSHAKSLEWIGVISTKYGKTNYNQKFKGKATMTVDKSSSTAYMELARLTSEDSAIYYCARGDDGYSWGQGTSVTVSSAKTTPPSVYPLAPGSAAQTNSMVTLGCLVKGYFPEPVTVTWNSGSLSSGVHTFPAVLQSDLYTLSSSVTVPSSTWPSETVTCNVAHPASSTKVDKKIVPRDCGCKPCICTVPEVSSVFIFPPKPKDVLTITLTPKVTCVVVDISKDDPEVQFSWFVDDVEVHTAQTQPREEQFNSTFRSVSELPIMHQDWLNGKEFKCRVNSAAFPAPIEKTISKTKGRPKAPQVYTIPPPKEQMAKDKVSLTCMITDFFPEDITVEWQWNGQPAENYKNTQPIMDTDGSYFVYSKLNVQKSNWEAGNTFTCSVLHEGLHNHHTEKSLSHSPG
[9]
  Kd: 106 nM

B6: 13C3-HC-VHH A (antibody, mouse IgG1)
heavy: QVQLQQSGPELVRPGVSVKISCKGSGYTFTDYAMHWVKQSHAKSLEWIGVISTKYGKTNYNQKFKGKATMTVDKSSSTAYMELARLTSEDSAIYYCARGDDGYSWGQGTSVTVSSAKTTPPSVYPLAPGSAAQTNSMVTLGCLVKGYFPEPVTVTWNSGSLSSGVHTFPAVLQSDLYTLSSSVTVPSSTWPSETVTCNVAHPASSTKVDKKIVPRDCGCKPCICTVPEVSSVFIFPPKPKDVLTITLTPKVTCVVVDISKDDPEVQFSWFVDDVEVHTAQTQPREEQFNSTFRSVSELPIMHQDWLNGKEFKCRVNSAAFPAPIEKTISKTKGRPKAPQVYTIPPPKEQMAKDKVSLTCMITDFFPEDITVEWQWNGQPAENYKNTQPIMDTDGSYFVYSKLNVQKSNWEAGNTFTCSVLHEGLHNHHTEKSLSHSPGGGGGMAEVQLVESGGGVVQPGGSLKLSCVASGTDFSINFIRWYRQAPGKQREFVAGFTATGNTNYADSMKGRFTISRDNTKNAVYLQIDSLKPEDTAVYYCYMLDKWGQGTQVTVSSAAA
light: DVVMTQTPLSLPVSLGDQASISCRSGQSLVHSNGNTYLHWYLQKPGQSPKLLIYTVSNRFSGVPDRFSGSGSGSDFTLKISRVEAEDLGVYFCSQNTFVPWTFGGGTKLEIKRADAAPTVSIFPPSSEQLTSGGASVVCFLNNFYPKDINVKWKIDGSERQNGVLNSWTDQDSKDSTYSMSSTLTLTKDEYERHNSYTCEATHKTSTSPIVKSFNRNEC
notes: mouse IgG1 13C3 (anti beta-amyloid protofibril) with VHH A at the C-ter of each heavy chain
[10]
  Kd: 11.3 nM

B7: 13C3-HC-VHH A8 (antibody)
heavy: B6 heavy with D543A
light: B6 light
[9]
  Kd: 315 nM

B8: 13C3-HC-VHH A6 (antibody)
heavy: B6 heavy with M541A
light: B6 light
[10]
  Kd: 23 nM

Source: patent US20230414780A1 (VECT HORUS, published 2023)
